Test results reported in patent US20100136005A1 (Genentech, published 2010).

How the values were obtained:
rhesus CD11a [1] = target: T1, rhesus CD11a (rhesus, UniProt H9Z8N3 26-1169); test: binding to rhesus peripheral blood lymphocytes
T1 construct: whole, on cells; also called rhCD11a
T1 sequence: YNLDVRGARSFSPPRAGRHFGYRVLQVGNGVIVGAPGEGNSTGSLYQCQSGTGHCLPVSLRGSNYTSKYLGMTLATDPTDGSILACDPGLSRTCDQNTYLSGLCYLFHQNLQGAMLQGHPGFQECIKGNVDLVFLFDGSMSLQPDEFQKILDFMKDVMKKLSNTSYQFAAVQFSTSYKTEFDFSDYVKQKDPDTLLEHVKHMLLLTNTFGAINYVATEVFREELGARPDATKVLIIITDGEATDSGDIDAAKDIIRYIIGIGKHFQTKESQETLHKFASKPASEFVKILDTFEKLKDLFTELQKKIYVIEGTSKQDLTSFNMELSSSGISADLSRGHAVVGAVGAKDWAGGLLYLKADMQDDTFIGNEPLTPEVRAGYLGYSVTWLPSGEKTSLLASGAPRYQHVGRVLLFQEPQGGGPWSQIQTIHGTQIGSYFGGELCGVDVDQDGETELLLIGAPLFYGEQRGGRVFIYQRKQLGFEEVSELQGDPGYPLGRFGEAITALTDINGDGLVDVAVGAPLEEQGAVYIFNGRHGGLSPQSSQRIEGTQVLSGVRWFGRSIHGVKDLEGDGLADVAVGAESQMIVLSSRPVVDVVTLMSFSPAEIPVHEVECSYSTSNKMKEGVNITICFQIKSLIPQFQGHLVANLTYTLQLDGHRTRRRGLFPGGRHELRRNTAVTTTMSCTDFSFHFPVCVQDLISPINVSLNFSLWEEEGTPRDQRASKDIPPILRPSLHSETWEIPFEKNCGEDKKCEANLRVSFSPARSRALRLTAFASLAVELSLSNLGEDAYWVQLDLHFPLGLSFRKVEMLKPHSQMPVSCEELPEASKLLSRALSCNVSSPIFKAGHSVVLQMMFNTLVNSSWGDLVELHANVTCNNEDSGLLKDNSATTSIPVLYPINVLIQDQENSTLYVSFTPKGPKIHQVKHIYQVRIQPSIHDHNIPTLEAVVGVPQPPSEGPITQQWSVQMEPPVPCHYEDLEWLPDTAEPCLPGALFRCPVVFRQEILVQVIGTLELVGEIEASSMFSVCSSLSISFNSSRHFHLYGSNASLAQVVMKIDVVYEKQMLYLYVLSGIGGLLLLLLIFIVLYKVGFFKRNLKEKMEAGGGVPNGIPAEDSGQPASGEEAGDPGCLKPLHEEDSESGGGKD

rhesus CD11a [2] = target: T1, rhesus CD11a; test: binding to rhesus peripheral blood lymphocytes; ratio to HuIgG1 EC50 (45.6 nM)
human CD11a = target: T2, human CD11a (human, UniProt P20701 26-1170); test: FACScan, Jurkat cells
T2 construct: whole, on cells; On cells as LFA-1 together with CD18; also called alpha subunit of LFA-1 (CD11a/CD18)
Method: Aliquots of 10⁶ Jurkat T-cells were incubated with serial dilutions of humanized and control antibodies in PBS-0.1% BSA-10 mM sodium azide for 45 min at 4° C. The cells were washed and then incubated in fluorescein-conjugated goat anti-human F(ab′)₂ (Organon Teknika, Westchester, Pa.) for 45 min at 4° C. Cells were washed and analysed on a FACScan (Becton Dickinson, Mountain View, Calif.). 8×10³ cells were acquired by list mode and gated by forward light scatter versus side light scatter, thereby excluding dead cells and debris.

B1: AspH54Ala (antibody, human IgG1, V domains shown)
VH: EVQLVESGGGLVQPGGSLRLSCAASGYSFTGHWMNWVRQAPGKGLEWVGMIHPSASETRYNQKFKDRFTISVDKSKNTLYLQMNSLRAEDTAVYYCARGIYFYGTTYFDYWGQGTLVTVSS
VL: DIQMTQSPSSLSASVGDRVTITCRASKTISKYLAWYQQKPGKAPKLLIYSGSTLQSGVPSRFSGSGSGTDFTLTISSLQPEDFATYYCQQHNEYPLTFGQGTKVEIK
notes: HuIgG1 variant (human IgG1); also called AspH54 change to Ala
- fold improvement over HuIgG1 (rhesus CD11a [1]): 3 fold

B2: AspH54Ser (antibody, human IgG1, V domains shown)
VH: EVQLVESGGGLVQPGGSLRLSCAASGYSFTGHWMNWVRQAPGKGLEWVGMIHPSSSETRYNQKFKDRFTISVDKSKNTLYLQMNSLRAEDTAVYYCARGIYFYGTTYFDYWGQGTLVTVSS
VL: DIQMTQSPSSLSASVGDRVTITCRASKTISKYLAWYQQKPGKAPKLLIYSGSTLQSGVPSRFSGSGSGTDFTLTISSLQPEDFATYYCQQHNEYPLTFGQGTKVEIK
notes: HuIgG1 variant (human IgG1); also called AspH54 change to Ser
- Variant EC50/HuIgG1 EC50 (rhesus CD11a [2]): 0.9 ratio

B3: humanized MHM24 F(ab)-6 (Fab, V domains shown)
VH: EVQLVESGGGLVQPGGSLRLSCAASGFSFTGHWMNWVRQAPGKGLEWVGMIHPSDSETRYNQKFKDRFTISVDKSSSTLYLQMNSLRAEDTAVYYCARGIYFYGTTYFDYWGQGTLVTVSS
VL: DIQMTQSPSSLSASVGDRVTITCRASKTISKYLAWYQQKPGKAPKLLIYSGSTLQSGVPSRFSGSGSGTDFTLTISSLQPEDFATYYCQQHNEYPLTFGQGTKVEIK
notes: F(ab) with human CL and CH1; Worked back from F(ab)-8
- fold improvement in binding (against F(ab)-5) (human CD11a): 4 fold

B4: H2 (antibody, human IgG1, V domains shown)
VH: EVQLVESGGGLVQPGGSLRLSCAASGYSFTGHWMNWVRQAPGKGLEWVGMIAPADAETRYNQKFKDRFTISVDKSKNTLYLQMNSLRAEDTAVYYCARGIYFYGTTYFDYWGQGTLVTVSS
VL: DIQMTQSPSSLSASVGDRVTITCRASKTISKYLAWYQQKPGKAPKLLIYSGSTLQSGVPSRFSGSGSGTDFTLTISSLQPEDFATYYCQQHNEYPLTFGQGTKVEIK
notes: HuIgG1 variant (human IgG1); also called variant H2; HisH52Ala/SerH53Ala/SerH55Ala
- fold better than HuIgG1 (rhesus CD11a [1]): 18 fold

B5: humanized MHM24 F(ab)-5 (Fab, V domains shown)
VH: EVQLVESGGGLVQPGGSLRLSCAASGFSFTGHWMNWVRQAPGKGLEWVGMIHPSDSETRYNQKFKDRFTISVDKSSSTLYLQMNSLRAEDTAVYYCARGIYFYGTTYFDYWGQGTLVTVSS
VL: DIQMTQSPSSLSASVGDRVTITCRASKTISKYLAWYQQKPGKAPKLLIYSGSSLESGVPSRFSGSGSGTDFTLTISSLQPEDFATYYCQQHNEYPLTFGQGTKVEIK
notes: as for B3
- fold improvement in binding (against F(ab)-2) (human CD11a): 23 fold

B6: H2A1 (antibody, human IgG1, V domains shown)
VH: EVQLVESGGGLVQPGGSLRLSCAASGYSFTGHWMNWVRQAPGKGLEWVGMIAPADSETRYNQKFKDRFTISVDKSKNTLYLQMNSLRAEDTAVYYCARGIYFYGTTYFDYWGQGTLVTVSS
VL: DIQMTQSPSSLSASVGDRVTITCRASKTISKYLAWYQQKPGKAPKLLIYSGSTLQSGVPSRFSGSGSGTDFTLTISSLQPEDFATYYCQQHNEYPLTFGQGTKVEIK
notes: HuIgG1 variant (human IgG1); also called HisH52Ala/SerH53Ala; HisH52Ala-SerH53Ala
- fold improvement in binding compared to HuIgG1 (rhesus CD11a [1]): 77 fold

B7: GluH56Ala (antibody, human IgG1, V domains shown)
VH: EVQLVESGGGLVQPGGSLRLSCAASGYSFTGHWMNWVRQAPGKGLEWVGMIHPSDSATRYNQKFKDRFTISVDKSKNTLYLQMNSLRAEDTAVYYCARGIYFYGTTYFDYWGQGTLVTVSS
VL: DIQMTQSPSSLSASVGDRVTITCRASKTISKYLAWYQQKPGKAPKLLIYSGSTLQSGVPSRFSGSGSGTDFTLTISSLQPEDFATYYCQQHNEYPLTFGQGTKVEIK
notes: HuIgG1 variant (human IgG1)
- fold improvement over HuIgG1 (rhesus CD11a [1]): 3 fold

B8: AspH54Lys (antibody, human IgG1, V domains shown)
VH: EVQLVESGGGLVQPGGSLRLSCAASGYSFTGHWMNWVRQAPGKGLEWVGMIHPSKSETRYNQKFKDRFTISVDKSKNTLYLQMNSLRAEDTAVYYCARGIYFYGTTYFDYWGQGTLVTVSS
VL: DIQMTQSPSSLSASVGDRVTITCRASKTISKYLAWYQQKPGKAPKLLIYSGSTLQSGVPSRFSGSGSGTDFTLTISSLQPEDFATYYCQQHNEYPLTFGQGTKVEIK
notes: HuIgG1 variant (human IgG1); also called AspH54 change to Lys
- Variant EC50/HuIgG1 EC50 (rhesus CD11a [2]): 3.8 ratio
